Results on two proteins are retold here after PMC5093072 (Structure (London, England : 1993), 2016).

The term koff denotes the rate constant with which the complex falls apart. As a reminder, the stoichiometry N is the number of molecules, sites or subunits per partner or assembly.

Data set [1] concerns the molecule itself. Briefly: SPR.
Data set [2] concerns the molecule itself. Briefly: SEC. On the technique in general: SEC sorts molecules by how far they enter the pores of the column.

B1: double mutant T2D/A4V-SOD1, unmodified (enzyme)
chain: not shown
modifications: for SPR: biotinylated on one subunit (EZ-link NHS-LC-LC-biotin)
In data set [1], B1 registered a koff of 0.000156 s⁻¹. The “stoichiometry N” value in data set [2] stood at 2.

B2: glutathionylated T2D/A4V-SOD1 (GS-T2D/A4V-SOD1), C111-glutathionylation enriched species (enzyme)
chain: not shown
modifications: glutathionylation at C111 (enriched species); for SPR: biotinylated on one subunit (EZ-link NHS-LC-LC-biotin)
In turn, B2 came in with a koff in data set [1] of 0.000161 s⁻¹. Further, the “stoichiometry N” value in data set [2] was found to be 2.
